According to article PMC4673497:

How the values were obtained:
[1] = biological target: T1, His-MYB88 (UniProt F4IRB4 1-484); assay: EMSA; 1x binding buffer (LightShift kit), 2.5% glycerol, 50 mM KCl, 5 mM MgCl2, 0.05% NP-40, 10 mM EDTA, room temperature, 20 min; pH not stated
T1 sequence: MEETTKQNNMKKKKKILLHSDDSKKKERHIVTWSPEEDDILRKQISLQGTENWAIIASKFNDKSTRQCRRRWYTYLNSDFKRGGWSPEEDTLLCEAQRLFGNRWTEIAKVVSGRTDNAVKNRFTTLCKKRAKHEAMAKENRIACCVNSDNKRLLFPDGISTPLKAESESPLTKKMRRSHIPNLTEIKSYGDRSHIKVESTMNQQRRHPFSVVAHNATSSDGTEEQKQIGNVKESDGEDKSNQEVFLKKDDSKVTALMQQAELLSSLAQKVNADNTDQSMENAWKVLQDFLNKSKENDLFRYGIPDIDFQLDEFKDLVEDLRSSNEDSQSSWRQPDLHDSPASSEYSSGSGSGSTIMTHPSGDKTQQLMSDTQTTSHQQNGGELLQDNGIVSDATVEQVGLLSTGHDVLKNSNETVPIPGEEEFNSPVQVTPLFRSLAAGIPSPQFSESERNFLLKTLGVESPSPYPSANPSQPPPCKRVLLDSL

[2] = biological target: T2, His-FLP (FOUR LIPS, MYB124) (UniProt Q94FL6 1-436); assay: as above
T2 sequence: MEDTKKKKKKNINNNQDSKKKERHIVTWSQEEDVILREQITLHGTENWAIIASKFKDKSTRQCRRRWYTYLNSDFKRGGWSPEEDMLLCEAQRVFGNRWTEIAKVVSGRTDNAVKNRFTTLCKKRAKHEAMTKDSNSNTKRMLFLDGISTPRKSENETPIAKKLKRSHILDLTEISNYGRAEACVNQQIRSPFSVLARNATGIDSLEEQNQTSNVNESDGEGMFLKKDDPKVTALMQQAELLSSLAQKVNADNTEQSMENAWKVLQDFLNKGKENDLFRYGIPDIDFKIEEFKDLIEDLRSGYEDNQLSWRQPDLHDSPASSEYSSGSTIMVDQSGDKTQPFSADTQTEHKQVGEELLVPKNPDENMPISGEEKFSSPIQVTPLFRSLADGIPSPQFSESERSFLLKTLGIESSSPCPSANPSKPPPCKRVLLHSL

B1: Probe-902 (dsDNA)
DNA 1: TATTTAACTATTGCTTTTTTGATTATTAGCCGGGGTACCAAGATATTAGTTTTTAATTT
DNA 2: AAATTAAAAACTAATATCTTGGTACCCCGGCTAATAATCAAAAAAGCAATAGTTAAATA
binding result [1]: binds | binding result [2]: binds

B2: Probe-1007 (dsDNA)
DNA 1: CATAAGGTATTCTTTTACACTAATACTTTCCCGACAACAACAACGAAAAACTCCAACCT
DNA 2: AGGTTGGAGTTTTTCGTTGTTGTTGTCGGGAAAGTATTAGTGTAAAAGAATACCTTATG
binding result [2]: no binding

B3: Probe-863 (dsDNA)
DNA 1: AAGATATTAGTTTTTAATTTAGTAATATACCCATATGTTTAATATTGATATCGATATTG
DNA 2: CAATATCGATATCAATATTAAACATATGGGTATATTACTAAATTAAAAACTAATATCTT
binding result [2]: no binding

B4: Probe-473 (dsDNA)
DNA 1: TTATGTGTATGTTGTTATCTACAATATGTCCGTTTCAATCAGTCGAACAAAAAATACTA
DNA 2: TAGTATTTTTTGTTCGACTGATTGAAACGGACATATTGTAGATAACAACATACACATAA
binding result [2]: no binding

B5: Probe-1392 (neighbour element -1386 replaced with A) (dsDNA)
DNA 1: AATGTGTAATTGTCAAGAGGGATAAACCGAAAAAAATGAATCGAAGAAGCAATTGCTTT
DNA 2: AAAGCAATTGCTTCTTCGATTCATTTTTTTCGGTTTATCCCTCTTGACAATTACACATT
binding result [1]: binds | binding result [2]: binds

B6: Probe-1386 (neighbour element -1392 replaced with A) (dsDNA)
DNA 1: AATGTGTAATTGTCAAGAGGGATAAAAAAACGCGGATGAATCGAAGAAGCAATTGCTTT
DNA 2: AAAGCAATTGCTTCTTCGATTCATCCGCGTTTTTTTATCCCTCTTGACAATTACACATT
binding result [1]: binds | binding result [2]: binds

B7: Probe-1086 (neighbour element -1080 replaced with A) (dsDNA)
DNA 1: CTTCTAGGAAAAAACAATTCTTGATACGGTAAAAAAAAGATCTTGATAACATTGTGACT
DNA 2: AGTCACAATGTTATCAAGATCTTTTTTTTACCGTATCAAGAATTGTTTTTTCCTAGAAG
binding result [2]: binds

B8: Probe-1080 (neighbour element -1086 replaced with A) (dsDNA)
DNA 1: CTTCTAGGAAAAAACAATTCTTGAAAAAATCGCGGAAAGATCTTGATAACATTGTGACT
DNA 2: AGTCACAATGTTATCAAGATCTTTCCGCGATTTTTTCAAGAATTGTTTTTTCCTAGAAG
binding result [2]: binds
